Assay results as given in publication PMC7644641 (Nature structural & molecular biology, 2020).

Biological target: RagA:RagC^D181N GTPase heterodimer (UniProt Q7L523 1-313; Q9HB90 1-399, D181N)
Assay: SEC

Sequence of RagA:RagC^D181N GTPase heterodimer (Q7L523 whole entry, chain 1 of 2): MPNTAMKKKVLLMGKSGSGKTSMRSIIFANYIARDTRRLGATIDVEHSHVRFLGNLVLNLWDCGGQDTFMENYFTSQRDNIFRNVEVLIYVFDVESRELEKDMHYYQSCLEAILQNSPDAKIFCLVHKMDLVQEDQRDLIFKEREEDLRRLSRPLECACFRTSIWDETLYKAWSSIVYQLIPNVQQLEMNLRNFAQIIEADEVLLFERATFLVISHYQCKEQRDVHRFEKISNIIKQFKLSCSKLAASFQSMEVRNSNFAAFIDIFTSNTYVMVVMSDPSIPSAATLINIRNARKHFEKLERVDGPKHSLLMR
Sequence of RagA:RagC^D181N GTPase heterodimer (Q9HB90 whole entry D181N, chain 2 of 2): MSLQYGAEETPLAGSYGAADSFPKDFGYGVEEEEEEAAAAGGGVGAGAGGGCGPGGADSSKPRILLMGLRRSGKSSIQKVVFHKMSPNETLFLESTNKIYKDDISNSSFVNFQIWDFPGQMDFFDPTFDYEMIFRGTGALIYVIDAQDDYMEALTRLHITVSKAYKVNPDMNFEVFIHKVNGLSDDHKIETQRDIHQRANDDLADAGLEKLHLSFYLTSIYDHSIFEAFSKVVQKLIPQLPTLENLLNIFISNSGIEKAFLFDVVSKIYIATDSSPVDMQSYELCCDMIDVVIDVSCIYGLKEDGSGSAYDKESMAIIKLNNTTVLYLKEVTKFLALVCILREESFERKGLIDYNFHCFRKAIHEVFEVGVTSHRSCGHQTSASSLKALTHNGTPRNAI

- binding result: binds
B1: SLC38A9 N-terminal cytoplasmic tail (residues 1–119) (domain or fragment, human, UniProt Q8NBW4 1-119, looked up)
chain: MANMNSDSRHLGTSEVDHERDPGPMNIQFEPSDLRSKRPFCIEPTNIVNVNHVIQRVSDHASAMNKRIHYYSRLTTPADKALIAPDHVVPAPEECYVYSPLGSAYKLQSYTEGYGKNTS
